Data published in the Immune Epitope Database (IEDB).

Assays:
Experiment in all cases: IEDB peptide-MHC binding, purified MHC/competitive/radioactivity; filed as Kd, often an IC50 or EC50 that approximates it; ≥ and ≤ were set here for values at or beyond the usual limits of such assays
Conditions in all cases: source organism: Homo sapiens
HLA-B*39:01 = target: HLA-B*39:01
HLA-B*38:01 = target: HLA-B*38:01
HLA-B*39:06 = target: HLA-B*39:06

Kd (HLA-B*39:01) [nM]	Kd (HLA-B*38:01) [nM]	Kd (HLA-B*39:06) [nM]	Sequence
17900	≥ 50000	405	FLFLFAVG
290	2760	7.4	FRLLCALTSL
62	≥ 44500	41	MRLLPLLA
≥ 25700	–	≥ 50000	NHSSPCLEQF
85	–	41	NRVMLPKA
35	≥ 50000	14	NRVMLPKAA
≥ 30900	≥ 50000	310	SASIPLTVVA
5250	10	≥ 35600	SHLVEALYL
11	321	696	SHVAVENAL
73	142	2600	THFPHQVIL
3950	6690	354	TNLFLFLFAV
865	≥ 50000	155	WMRLLPLLA
660	9750	151	YHFLQIPT
